In PMC6212729 (Nucleic Acids Research, 2018):

B1: Human WT emerin fragment from amino acid 1 to amino acid 187 (EmN) (domain or fragment, UniProt P50402 1-187, looked up)
chain: MDNYADLSDTELTTLLRRYNIPHGPVVGSTRRLYEKKIFEYETQRRRLSPPSSSAASSYSFSDLNSTRGDADMYDLPKKEDALLYQSKGYNDDYYEESYFTTRTYGEPESAGPSRAVRQSVTSFPDADAFHHQVHDDDLLSSSEEECKDRERPMYGRDSAYQSITHYRPVSASRSSLDLSYYPTSSS

Experiments:
[1] = biological target: Human Barrier-to-Autointegration Factor (BAF) with all cysteines mutated in alanine (human) (UniProt O75531); assay: crystal structure
[2] = biological target: Human Barrier-to-Autointegration Factor (BAF) with all cysteines mutated in alanine (human) (UniProt O75531); assay: ITC
[3] = biological target: Human Barrier-to-Autointegration Factor (BAF) with all cysteines mutated in alanine (human) (UniProt O75531); assay: ITC; remark: listed apart in the source
[4] = biological target: the molecule itself; assay: negative-staining electron microscopy
[5] = biological target: B1; assay: NMR titration
[6] = biological target: T1, GFP-BAF (full length BAF) (UniProt O75531 1-89); assay: proximity ligation
T1 sequence (looked up): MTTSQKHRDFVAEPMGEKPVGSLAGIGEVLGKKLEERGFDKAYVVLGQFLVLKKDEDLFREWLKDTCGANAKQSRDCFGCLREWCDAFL

## Human Barrier-to-Autointegration Factor (BAF) with all cysteines mutated in alanine (from UniProt O75531 2-76) (natural protein)
[1]
  stoichiometry N: 2

## LamIgF mutant A529V (from UniProt P02545 411-566) (domain or fragment)
[2]
  fold decrease of affinity against LamIgF WT: 5 fold

## LamIgF mutant R471C (from UniProt P02545 411-566) (domain or fragment)
[2]
  fold decrease of affinity against LamIgF WT: 5 fold

## B1
[3]
  Kd: 700 nM
[4]
  binding result: binds

B2: Human wild-type lamin A/C fragment from amino acid 411 to amino acid 566 (LamIgF) (domain or fragment, UniProt P02545 411-566, looked up)
chain: GGGSVTKKRKLESTESRSSFSQHARTSGRVAVEEVDEEGKFVRLRNKSNEDQSMGNWQIKRQNGDDPLLTYRFPPKFTLKAGQVVTIWAAGAGATHSPPTDLVWKAQNTWGCGNSLRTALINSTGEEVAMRKLVRSVTVVEDDEDEDGDDLLHHHH
[5]
  binding result: binds

B3: Human WT emerin fragment from amino acid 67 to amino acid 221 (EmC) (domain or fragment, UniProt P50402 67-221, looked up)
chain: TRGDADMYDLPKKEDALLYQSKGYNDDYYEESYFTTRTYGEPESAGPSRAVRQSVTSFPDADAFHHQVHDDDLLSSSEEECKDRERPMYGRDSAYQSITHYRPVSASRSSLDLSYYPTSSSTSFMSSSSSSSSWLTRRAIRPENRAPGAGLGQDR
[4]
  binding result: binds

B4: FLAG-mature lamin A (aa 1 to aa 646) A529V (natural protein, UniProt P02545 1-646, looked up)
chain: METPSQRRATRSGAQASSTPLSPTRITRLQEKEDLQELNDRLAVYIDRVRSLETENAGLRLRITESEEVVSREVSGIKAAYEAELGDARKTLDSVAKERARLQLELSKVREEFKELKARNTKKEGDLIAAQARLKDLEALLNSKEAALSTALSEKRTLEGELHDLRGQVAKLEAALGEAKKQLQDEMLRRVDAENRLQTMKEELDFQKNIYSEELRETKRRHETRLVEIDNGKQREFESRLADALQELRAQHEDQVEQYKKELEKTYSAKLDNARQSAERNSNLVGAAHEELQQSRIRIDSLSAQLSQLQKQLAAKEAKLRDLEDSLARERDTSRRLLAEKEREMAEMRARMQQQLDEYQELLDIKLALDMEIHAYRKLLEGEEERLRLSPSPTSQRSRGRASSHSSQTQGGGSVTKKRKLESTESRSSFSQHARTSGRVAVEEVDEEGKFVRLRNKSNEDQSMGNWQIKRQNGDDPLLTYRFPPKFTLKAGQVVTIWAAGAGATHSPPTDLVWKAQNTWGCGNSLRTVLINSTGEEVAMRKLVRSVTVVEDDEDEDGDDLLHHHHGSHCSSSGDPAEYNLRSRTVLCGTCGQPADKASASGSGAQVGGPISSGSSASSVTVTRSYRSVGGSGGGSFGDNLVTRSY
[6]
  PLA signals as percent of WT lamin A: ~50 % of WT

B5: FLAG-mature lamin A (aa 1 to aa 646) K542N (natural protein, UniProt P02545 1-646, looked up)
chain: METPSQRRATRSGAQASSTPLSPTRITRLQEKEDLQELNDRLAVYIDRVRSLETENAGLRLRITESEEVVSREVSGIKAAYEAELGDARKTLDSVAKERARLQLELSKVREEFKELKARNTKKEGDLIAAQARLKDLEALLNSKEAALSTALSEKRTLEGELHDLRGQVAKLEAALGEAKKQLQDEMLRRVDAENRLQTMKEELDFQKNIYSEELRETKRRHETRLVEIDNGKQREFESRLADALQELRAQHEDQVEQYKKELEKTYSAKLDNARQSAERNSNLVGAAHEELQQSRIRIDSLSAQLSQLQKQLAAKEAKLRDLEDSLARERDTSRRLLAEKEREMAEMRARMQQQLDEYQELLDIKLALDMEIHAYRKLLEGEEERLRLSPSPTSQRSRGRASSHSSQTQGGGSVTKKRKLESTESRSSFSQHARTSGRVAVEEVDEEGKFVRLRNKSNEDQSMGNWQIKRQNGDDPLLTYRFPPKFTLKAGQVVTIWAAGAGATHSPPTDLVWKAQNTWGCGNSLRTALINSTGEEVAMRNLVRSVTVVEDDEDEDGDDLLHHHHGSHCSSSGDPAEYNLRSRTVLCGTCGQPADKASASGSGAQVGGPISSGSSASSVTVTRSYRSVGGSGGGSFGDNLVTRSY
[6]
  PLA signals as percent of WT lamin A: ~50 % of WT

B6: FLAG-mature lamin A (aa 1 to aa 646) R435C (natural protein, UniProt P02545 1-646, looked up)
chain: METPSQRRATRSGAQASSTPLSPTRITRLQEKEDLQELNDRLAVYIDRVRSLETENAGLRLRITESEEVVSREVSGIKAAYEAELGDARKTLDSVAKERARLQLELSKVREEFKELKARNTKKEGDLIAAQARLKDLEALLNSKEAALSTALSEKRTLEGELHDLRGQVAKLEAALGEAKKQLQDEMLRRVDAENRLQTMKEELDFQKNIYSEELRETKRRHETRLVEIDNGKQREFESRLADALQELRAQHEDQVEQYKKELEKTYSAKLDNARQSAERNSNLVGAAHEELQQSRIRIDSLSAQLSQLQKQLAAKEAKLRDLEDSLARERDTSRRLLAEKEREMAEMRARMQQQLDEYQELLDIKLALDMEIHAYRKLLEGEEERLRLSPSPTSQRSRGRASSHSSQTQGGGSVTKKRKLESTESRSSFSQHACTSGRVAVEEVDEEGKFVRLRNKSNEDQSMGNWQIKRQNGDDPLLTYRFPPKFTLKAGQVVTIWAAGAGATHSPPTDLVWKAQNTWGCGNSLRTALINSTGEEVAMRKLVRSVTVVEDDEDEDGDDLLHHHHGSHCSSSGDPAEYNLRSRTVLCGTCGQPADKASASGSGAQVGGPISSGSSASSVTVTRSYRSVGGSGGGSFGDNLVTRSY
[6]
  PLA signals as percent of WT lamin A: ~50 % of WT

B7: FLAG-mature lamin A (aa 1 to aa 646) R527H (natural protein, UniProt P02545 1-646, looked up)
chain: METPSQRRATRSGAQASSTPLSPTRITRLQEKEDLQELNDRLAVYIDRVRSLETENAGLRLRITESEEVVSREVSGIKAAYEAELGDARKTLDSVAKERARLQLELSKVREEFKELKARNTKKEGDLIAAQARLKDLEALLNSKEAALSTALSEKRTLEGELHDLRGQVAKLEAALGEAKKQLQDEMLRRVDAENRLQTMKEELDFQKNIYSEELRETKRRHETRLVEIDNGKQREFESRLADALQELRAQHEDQVEQYKKELEKTYSAKLDNARQSAERNSNLVGAAHEELQQSRIRIDSLSAQLSQLQKQLAAKEAKLRDLEDSLARERDTSRRLLAEKEREMAEMRARMQQQLDEYQELLDIKLALDMEIHAYRKLLEGEEERLRLSPSPTSQRSRGRASSHSSQTQGGGSVTKKRKLESTESRSSFSQHARTSGRVAVEEVDEEGKFVRLRNKSNEDQSMGNWQIKRQNGDDPLLTYRFPPKFTLKAGQVVTIWAAGAGATHSPPTDLVWKAQNTWGCGNSLHTALINSTGEEVAMRKLVRSVTVVEDDEDEDGDDLLHHHHGSHCSSSGDPAEYNLRSRTVLCGTCGQPADKASASGSGAQVGGPISSGSSASSVTVTRSYRSVGGSGGGSFGDNLVTRSY
[6]
  PLA signals as percent of WT lamin A: ~50 % of WT
